T1: amphyphisin SH3 (AMPH_HUMAN), P49418
T1 chain: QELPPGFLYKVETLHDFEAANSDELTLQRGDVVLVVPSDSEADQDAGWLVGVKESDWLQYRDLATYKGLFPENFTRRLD


Legend:
[1] = target: T1, amphyphisin SH3 (AMPH_HUMAN), P49418; assay: SPOT array
[2] = target: endophilin SH3 (SH3G2_HUMAN), Q99962; assay: SPOT array

| Binder | normalised SPOT signal, Boehringer light units (BLU); mean over the file's lines of this peptide [1] | normalised SPOT signal, Boehringer light units (BLU); mean over the file's lines of this peptide [2] |
| --- | --- | --- |
| SEGTLERPQRSRGR [Q9NQX6 85-98] | 930 | 125 |
| TKDSPGKPPMAPPS [BAC03441 170-184] | 90.4 | 80.7 |
| TKIMFNRPKKKNAI [O75521 116-129] | 80.4 | 112 |
| TKIPFKRPRGHNFS [Q9HAS2 64-77] | 53.7 | 22.1 |
| TKTPPPRPPLPTQQ [Q9NSG0 388-402] | 708 | 13500 |
| TLKRPKRPPLKEFF [Q96NX2 23-37] | 2720 | 15000 |
| TLKRPKRPPLREFF [Q9Y2E4 59-73] | 3950 | 24900 |
| TLLALQRPQRLHHH [Q9NYK9 18-31] | 3250 | 877 |
| TLLEPRRPRSESVT [Q9UPN7 147-160] | 29.7 | 113 |
| TLLFPKRPFSWIRH [Q969I6 440-453] | 123 | 1590 |
| TLLGPGRPYRAIDF [P40126 196-209] | 184 | 488 |
| SEHNPKRPVTSEQG [O75598 106-119] | 33.3 | 19.4 |
| TLLSPPRPGRLPDL [O95206 1031-1044] | 443 | 192 |
| TLQAPRRPPTPGPD [Q9H6K5 343-356] | 35.3 | 1890 |
| TLVWPHRPARPRPV [Q9BXL6 817-830] | 613 | 2240 |
| TMSSIYRPLKPRTN [Q9H296 344-357] | 97.2 | 120 |

| Binder | normalised SPOT signal, Boehringer light units (BLU); mean over the file's lines of this peptide [1] | normalised SPOT signal, Boehringer light units (BLU); mean over the file's lines of this peptide [2] |
| --- | --- | --- |
| TNAGIRRPEKPPYS [Q12946 14-27] | 70.3 | 113 |
| TNFAFRRPSFESLK [P43652 501-514] | 45.2 | 414 |
| TNFPPPRPPPPSRP [AAH28697 239-253] | 1610 | 11200 |
| TNPELRRPRSEPSN [Q9Y6Y1 1215-1228] | 34.7 | 41.2 |
| TNSRLARPTRLSLG [P35568 851-864] | 1760 | 1890 |
| TPAPPLRPPDSLSR [Q8WX45 160-174] | 446 | 647 |
| SELRLSRPPKAYGS [Q9H4S4 61-74] | 36.1 | 13.3 |
| TPAPPLRPPDSPSR [O75949 160-174] | 280 | 2060 |
| TPASPRRPPALRSQ [Q9BUY9 390-404] | 843 | 6640 |
| TPDLLPRPPRLLLL [Q9NRA0 137-150] | 830 | 94.4 |
| TPGEFRRPRLASFG [Q14678 130-143] | 44.3 | 720 |
| TPKPPKRPRLQRPA [Q9NWH1 363-376] | 381 | 8220 |
| TPLSLKRPPPYDAV [Q9P242 471-484] | 19.2 | 67.5 |
| TPLSPLKPPRMDTA [Q9H898 117-131] | 334 | 56.4 |
| TPNPLERPIKMGWL [P42331 33-46] | 94 | 59.1 |

From publication PMC314469, “Protein Interaction Networks by Proteome Peptide Scanning” (PLoS Biology, 2004)
